According to article PMC9043764:

B1: cathepsin V (CTSV): N221Q (protein)
parent chain: MNLSLVLAAFCLGIASAVPKFDQNLDTKWYQWKATHRRLYGANEEGWRRAVWEKNMKMIELHNGEYSQGKHGFTMAMNAFGDMTNEEFRQMMGCFRNQKFRKGKVFREPLFLDLPKSVDWRKKGYVTPVKNQKQCGSCWAFSATGALEGQMFRKTGKLVSLSEQNLVDCSRPQGNQGCNGGFMARAFQYVKENGGLDSEESYPYVAVDEICKYRPENSVANDTGFTVVAPGKEKALMKAVATVGPISVAMDAGHSSFQFYKSGIYFEPDCSSKNLDHGVLVVGYGFEGANSNNSKYWLVKNSWGPEWGSNGYVKIAKDKNNHCGIATAASYPNV
B2: cathepsin V (CTSV): N292Q (protein)
parent chain: B1 parent chain
B3: cathepsin V (CTSV): 2NQ (protein)
parent chain: B1 parent chain

test: Western blot of supernatant and whole cell lysate, A549; settings: glycan lost; control: wild type CTSV

expression_or_secretion, decreases:
B1, B2, B3
